Results as given in patent publication CN114349861A (HUAOTSU BALL; JIANGSU INST OF TARGET BIOMEDICINE CO LTD, dated 2022).

Biological target: T1, 人PD1蛋白 (human, UniProt Q15116 25-170)
T1 construct: extracellular domain; also called PD1(人); PD1(胞外段)蛋白
Test: non-competitive ELISA at three PD1 coating concentrations; Beatty formula, mean of three K values

T1 sequence (Q15116 25-170): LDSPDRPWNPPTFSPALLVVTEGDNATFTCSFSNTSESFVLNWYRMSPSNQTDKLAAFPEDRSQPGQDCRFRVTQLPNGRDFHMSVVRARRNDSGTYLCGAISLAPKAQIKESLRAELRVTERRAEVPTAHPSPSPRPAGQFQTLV

B1: 抗PD1-VHH1 (VHH)
VHH: QVQLVESGGGSVQAGGSLRLSCAASGYASSSYSMGWFRQAPGKEREAVAGVNRDGSTRYADSVKGRFTISKDNAKNTLYLQMNSLKPEDTAMYYCAADRGWLPRRPDYWGQGTQVTVSS
notes: Camel (dromedary) VHH selected from a T7 phage library; The soluble protein was expressed from pET32a in E. coli BL21(DE3) and purified on Ni-IDA; The specificity ELISA detected it with an anti-HA antibody; also called 抗PD1Nb1; antiPD1Nb
Ka: 8.2e+06 M⁻¹
